Key:
CYLD = CYLD knockdown efficiency of siCYLD (immunoblotting); type: cell-based, human; conditions: a number of cell types including NHBE cells
Protocol: RNA-mediated interference for downregulating CYLD expression was carried out using pSuper-CYLD and the sequence for the siCYLD is 5′-[…]-3′ (SEQ ID NO:13). Human and mouse siRNAs for Akt and CHIP were from Dharmacon, and knockdown of Akts and CHIP, using siAkt and siCHIP, was performed with Lipofectamine 2000 (Invitrogen). ON-TARGETplus SMARTpool of siRNAs targeting human Akt1, human CHIP, mouse Akt1, and mouse Akt2 consists of four siRNAs and sequences for the siRNAs are as follows: Human siAkt1 (5′-[…]-3′ (SEQ ID NO:14), 5′-[…]-3′ (SEQ ID NO:15), 5′[…]-3′ (SEQ ID NO:16), 5′-[…]-3′ (SEQ ID NO:17)); human CHIP (5′-[…]-3′ (SEQ ID NO:18), 5′-[…]-3′ (SEQ ID NO:19), 5′-[…]-3′ (SEQ ID NO:20), 5′-[…]-3′ (SEQ ID NO:21)); mouse Akt1 (5′-[…]-3′ (SEQ ID NO:22), 5′-[…]-3′ (SEQ ID NO:23), 5′-[…]-3′ (SEQ ID NO:24), 5′-[…]-3′ (SEQ ID NO:25)); mouse Akt2 (5′-[…]-3′ (SEQ ID NO:26), 5′-[…]-3′ (SEQ ID NO:27), 5′-[…]-3′ (SEQ ID NO:28), 5′-[…]-3′ (SEQ ID NO:29)).
Western blot, immunoprecipitation and ubiquitination experiments were performed as follows. Western blots were performed using whole-cell extracts, separated on 8 or 10% SDS-PAGE gels, and transferred to polyvinylidine di& uoride membranes. […] Immunoprecipitates were then suspended in a sample buffer, separated on 8% SDS-PAGE, transferred to polyvinylidine difluoride membrane, and detected by immunoblot analysis, as described above. […]

Akt = Akt ubiquitination in cells (immunoprecipitation, immunoblotting); type: cell-based, human; conditions: epithelial cells
Protocol: Western blot, immunoprecipitation and ubiquitination experiments were performed as follows. Western blots were performed using whole-cell extracts, separated on 8 or 10% SDS-PAGE gels, and transferred to polyvinylidine di& uoride membranes. The membrane was blocked with a solution of PBS containing 0.1% Tween 20 (PBS-T) and 5% BSA. The membrane was then incubated in a 1:2,000 dilution of a primary antibody in 5% BSA-PBS-T. After three washes in PBS-T, the membrane was incubated with 1:5,000 dilution of the corresponding secondary antibody in 3% non-fact skim milk-PBS-T. Respective proteins were visualized by using enhanced chemiluminescence detection reagents, according to the manufacturer's instructions. To conduct immunoprecipitation analysis, cell lysates were incubated with 1 μg of primary antibodies overnight, at 4° C., followed by 2-h incubation with protein A/G-agarose beads (Invitrogen). Immunoprecipitates were then suspended in a sample buffer, separated on 8% SDS-PAGE, transferred to polyvinylidine difluoride membrane, and detected by immunoblot analysis, as described above. […]

[1] = tested on: TGF-β-induced fibrotic response; test: TGF-β-induced fibrotic response in TRAF6-depleted cells; type: cell-based
Excerpt: Because K14 lysine in the pleckstrin homology domain of Akt is critical for mediating its function, we next determined whether mutation of K14 lysine to arginine (R) reduces polyubiquitination of Akt. […] We further determined whether K14 residue in Akt is indeed functionally critical for mediating CYLD-induced inhibition of TGF-β-signalling. […] TNF receptor-associated factor 6 (TRAF6) was previously shown to function as an E3 ligase for Akt-K63 polyubiquitination and CYLD deubiquitinates TRAF6. Thus, we next explored the possibility that CYLD may inhibit Akt-mediated fibrotic responses via deubiquitinating TRAF6.
It is possible that CYLD may inhibit Akt-mediated fibrotic response by actually deubiquitinating TRAF6. Thus, we evaluated the effect of siCYLD on TGF-β-induced fibrotic response in TRAF6-depleted cells using siTRAF6. […] Here we have provided strong evidence that CYLD inhibits S. pneumoniae-induced Smad3-dependent fibrosis via inhibiting Akt, thereby linking CYLD to Smad3 via Akt. It is still unclear whether or not direct activation of Akt induces a fibrotic response via Smad3. Indeed, direct activation of Akt by expressing a constitutively active form of C/A-Akt induces expression of the fibrotic response gene PAI-1 and CTGF in Smad3+/+ cells, but not in Smad3−/− cells. […]

PAI-1 = test: TGF-β-induced PAI-1 expression in Akt1−/− cells; type: cell-based
Excerpt: Thus, we determined the effect of knockdown of both Akt1 and 2 on Smad3 protein level in these cells. […] We further confirmed whether activation of Akt does induce upregulation of fibrotic response gene expression via Smad3. Activation of Akt by expressing a constitutively active C/A-Akt indeed induced expression of PAI-1 and CTGF in Smad3+/+ cells, but not in Smad3−/− cells. […] PI3 K is known as the one of the major signalling molecules upstream of Akt. We thus determined whether PI3K, like Akt, is also involved in mediating CYLD-dependent Smad3 degradation by evaluating the effect of PI3K and Akt inhibitors on Smad3 protein expression. […] Further studies are needed to determine whether CYLD-Akt-mediated regulation of Smad3 is indeed independent of PI3K by using more specific approaches.

B1: siCYLD: RNA-mediated interference for downregulating CYLD expression using pSuper-CYLD, SEQ ID NO:13 (nucleic acid)
chain: GATCCCCGAGCTACTGAGGACAGAAATTCAAGAGATTTCTGTCCTCAGTAGCTCTTTTTGGAAA
modifications: expressed from pSuper vector
With B1 the “endogenous CYLD protein expression” value (CYLD) was “efficiently reduced”, the “S. pneumoniae-induced Akt ubiquitination” value (Akt) was “markedly enhanced” and the TGF-β-induced fibrotic response [1] was “still enhanced”. The “TGF-β-induced PAI-1 expression” value (PAI-1) was “no longer enhanced”.

From patent US9951335B2, “Compositions and methods for treating otitis media and other conditions with inhibitors of CYLD” (Georgia State University Research Foundation, Inc., priority 2012, dated 2018)
